For data set [1] the following is noted: rat, in vivo.
The subject of data set [2] is anesthetized, hyperglycemic rats. The data set can be described thus: Blood glucose levels. The conditions noted are these: nose drops, 2 units of insulin, mean +/- SEM, n=3-6; for Blood Glucose AUC 0-180: trapezoidal rule. The data set is classed as in vivo, rat.
For data set [3] the following is noted: rat, in vivo. This is another data set of the same source.
Data set [4] concerns cells that line the nasal cavity. The conditions noted are these: 0.125% TDM, ref Arnold et al., 2004; cited from earlier work.
Data set [5] can be described thus: Plasma insulin levels after nasal administration of insulin nose drops. As to conditions: rats, 2 units of insulin, with 0.125% TDM, human insulin RIA, mean +/- SEM, n = 3-6.
Setting [6] is: with 0.125% TDM, basal glucose 303 to 393 mg/dl.

Read-outs that look alike come from different tables or passages of the source. Marks after values point to notes of the source that are not given here.

Consider Aspart Insulin, for which, in data set [1], the “Plasma Insulin AUC 0-180” value is recorded as 55238 +/- 4600 ^a, ^b uU/ml × minutes and the “Plasma Insulin T-max” value was determined as 15 min. In data set [2] (setting [6]), the “Blood Glucose at 60 minutes after Insulin administration” value (from here on “Blood Glucose at 60 minutes”) is given as 205 +/- 13 ^a, ^b mg/dL. Further, the “Absorption of insulin from the nasal cavity (in words)” value in data set [3] is “absorbed from the nasal cavity”.

Turning to `CCCCCCCCCCCCCCO[C@@H]1O[C@H](CO)[C@@H](O[C@H]2O[C@H](CO)[C@@H](O)[C@H](O)[C@H]2O)[C@H](O)[C@H]1O` [TDM, tetradecyl-β-D-maltoside], in data set [4], the “Toxicity to the cells that line the nasal cavity” value was “minimal toxicity”.

On to Lispro Insulin, for which, in data set [1], the “Plasma Insulin AUC 0-180” value is given as 41820 +/- 3300 ^a uU/ml × minutes and the “Plasma Insulin T-max” value amounted to 15 min. In data set [2] (setting [6]), the “Blood Glucose at 60 minutes” value is 160 +/- 27 ^a mg/dL and the “Blood Glucose AUC 0-180” value is recorded as 39863 +/- 3200 ^a mg/dL × minutes.

Take “Regular Insulin: regular insulin (Novolin R®), Novo Nordisk”: the “Blood Glucose at 60 minutes” value is listed as 135 +/- 22 ^a mg/dL in data set [2] (setting [6]) and 600 +/- 10 ^** mg/dL in data set [2] (without TDM (0%), upper limit of glucometer = 600 mg/dL). Besides, the “Blood Glucose AUC 0-180” value in data set [2] (setting [6]) was 32745 +/- 2400 ^a mg/dL × minutes; in data set [2] (without TDM (0%)) it was 93728 ± 2600 mg·min/dL. In addition, in data set [5], the “Plasma Insulin C-max” value is reported as 874 +/- 56 ^a uU/ml. Besides, the “Plasma Insulin AUC 0-180” value in data set [5] (up to 180 minutes, trapezoidal rule) is 33398 +/- 2500 ^a uU/ml × minutes.

Glargine Insulin: in data set [1], the “Plasma Insulin AUC 0-180” value is listed as 67170 +/- 4800 ^a, ^b uU/ml × minutes; the “Plasma Insulin C-max” value is on record as 500 +/- 52 ^a, ^b uU/ml; the “Plasma Insulin T-max” value worked out at 60 min. Further, in data set [2] (setting [6]), the “Blood Glucose at 60 minutes” value is given as 183 +/- 26 ^a mg/dL and the “Blood Glucose AUC 0-180” value is listed as 36345 +/- 3600 ^a mg/dL × minutes. Moreover, the “Absorption of insulin from the nasal cavity (in words)” value in data set [3] is recorded as “absorbed from the nasal cavity”.
